Target: SAP11_(CaPm) from 'Ca. P. mali' strain STAA, split-YFP fusion for BiFC ('Candidatus Phytoplasma mali' strain STAA)
Assay: split reporter (BiFC, NanoBiT); BiFC with split YFP from pBiFC-2in1 vectors in Nicotiana benthamiana mesophyll protoplasts; confocal microscopy 16 h after transformation; RFP marks transformed protoplasts

MdTCP16, split-YFP fusion for BiFC (natural protein)
percent of transformed protoplasts with a YFP signal: < 92.5%

Source: publication PMC9754288
